Laboratory results taken from patent publication US9872921B2, “DE-N-acetyl sialic acid antigens, antibodies thereto, and methods of use in cancer therapy” (priority 2004, dated 2018).

Experiments:
SK-MEL-28 melanoma cells = assay: Fluorescence / confocal microscopy binding to cells; type: cell-based, human; conditions: without Triton
Experimental: (§1) After an overnight incubation cells were gently washed with PBS buffer and fixed with ice-cold 1% (v/v) formaldehyde. After 20 minutes cells were washed with PBS before blocking non-specific binding with a solution of 3% goat serum for 1 hour. To observe the presence of SEAM 3-reactive antigen that is present inside the cells, the cells were treated Triton X-100 0.5% w/v in 3% goat serum for 1 hour. The primary antibodies were added and incubated for 2 hours or overnight at 4° C. Cells were gently washed by a series (at least twice) with ice-cold PBS before isotype-specific secondary antibody (produced in goat) conjugated with either Alexa Fluor 488 (immunofluorescence and confocal), Alexa Fluor 546 (confocal) Alexa Fluor 594 (immunofluorescence), Alexa Fluor 633 (confocal) was applied for at least 1 hour at 4° C. in the dark (all secondary antibodies conjugated to fluorophores were obtained from Invitrogen, Carlsbad, Calif.). After another series of gentle washes, a hardening mounting medium containing DAPI was applied.
(§2) Confocal images were obtained using a Zeiss Meta510 CLSM at the Biological Imaging Facility, University of California, Berkeley, Calif. and were analyzed using ImageJ Software (NIH). Control antibodies and secondary antibodies applied alone were routinely used to assess background fluorescence.

[1] = system: CHP-134 neuroblastoma cells; assay: as above; type: cell-based, human; conditions: without Triton
Experimental: as §1, §2

SK-MEL 28 cells [2] = assay: Cell viability by ViaCount Reagent flow cytometry; type: cell-based, human
Experimental: Cell viability of SK-MEL 28 cells incubated in the presence of SEAM 3 or control mAbs (irrelevant isotype IgG2b or anti-GD3, R24) was determined using ViaCount Reagent (Guava Technologies, Hayward, Calif.), as per manufacturers instructions. […] The viability was analysed using a pre-set program on the Guava EasyCyte flowcytometer. The program has a preset gate for apoptosis and this was routinely incorporated into our studies.

SK-MEL 28 cells [3] = assay: Flow cytometry double labeling of SEAM 3 binding and Ki-67 antigen; type: cell-based, human
Experimental: Cells were processed by the same procedures used to measure SEAM 3 binding in the absence of Triton. After unbound SEAM 3 had been washed away, cells were treated with 3% (v/v) goat serum containing 0.5% Triton to allow entry of an anti-Ki-67 antibody. After 1 h at 4° C., an anti-Ki-67 was added and incubated on-ice for 2 hours. Cells were then collected by centrifugation, washed twice with PBS, and two fluorescently labeled goat anti-mouse secondary antibodies were added, anti IgG2b-Alexa Flour 594 (Invitrogen); anti-IgM-Alexa Flour 488 (Invitrogen). After extensive washing, cells were analyzed on a Guava EasyCyte flow cytometer.

[4] = system: Jurkat cells (acute lymphoblastic T-cell leukemia); conditions: approximately proportional to level of antigen on cell surface
CHP-134 neuroblastoma = conditions: approximately proportional to level of antigen on cell surface
SK-MEL 28 melanoma cells = assay: Flow cytometry binding to cells; type: cell-based, human
Experimental: (§3) Cells (approximately 10^5 per well) were plated onto a flat bottom 96-well tissue culture plate (Nunc) and incubated with growth medium overnight before assay. Cells were detached from the plate by either trypsin (SK-MEL-28) or CDR (CHP-134) before being collected into a 96-round bottom plate, spun at 500 g for 5 minutes and fixed with ice-cold 1% (v/v) formaldehyde. After 20 minutes cells were pelleted by centrifugation (above) and incubated a blocking solution of 3% (v/v) goat serum with and without Triton X-100 (0.5% w/v) for 1 hour. After which the primary antibodies were added and incubated for 2 h or overnight at 4° C. The cells were washed twice by pelleting and resuspension in ice-cold PBS. Secondary antibody (Invitrogen, as described above) was incubated with the cells for at least 1 hour at 4° C. in the dark. After another series of spins and washes (3 times) binding was analyzed by a Guava EastCyte flow cytometer. Control samples were treated with an isotype matched irrelevant antibody (Southern Biotech), which were used to create baseline fluorescence, or positive control mAbs that are reactive with antigens specifically expressed by the cells (i.e. anti-GD3 for SK-MEL 28 cells and anti-NCAM in CHP-134 cells). In addition, specificity of binding was shown for the Jurkat cells by preincubating SEAM 3 with 50 μg/ml N-Pr NmB PS prior to adding the mAb to the cells.

[5] = system: CHP-134 neuroblastoma cells; assay: Flow cytometry binding to cells; type: cell-based, human
Experimental: as §3

[6] = system: Jurkat T-cell leukemia cells; assay: Flow cytometry binding to cells; type: cell-based, human
Experimental: as §3

human melanomas = assay: Immunostaining of frozen sections of human melanomas; conditions: frozen unfixed sections, 400× magnification
Experimental: To determine whether there is a difference in expression of SEAM 3-reactive antigen between normal melanocytes and melanoma tumor cells, immuno-staining of thin sections of each type of tissue were performed. In addition to SEAM 3, controls included the secondary antibody alone and R24, which binds to the ganglioside GD3 that is expressed in normal melanocytes and is overexpressed in some melanomas (Dippold et al. Proc Natl Acad Sci USA, 1980. 77(10): 6114-8.; Graus, et al., Brain Res, 1984. 324(1): 190-4; Houghton et al. Proc Natl Acad Sci USA, 1985. 82(4):1242-6; Panneerselvam et al. J Immunol, 1986. 136(7): 2534-41; Real et al. Cancer Res, 1985. 45(9): 4401-11; Vadhan-Raj et al. J Clin Oncol, 1988. 6(10): 1636-48; Welt t al. Clin Immunol Immunopathol, 1987. 45(2): 214-29).
The tissue sections were made from frozen samples of normal skin (HuSkinTb111 in FIG. 39) and two human melanomas (HuMel1151 and HuMel4034). To prevent the possibility of blocking de-N-acetyl antigen or extracting a lipid containing the antigen, the sections were prepared from frozen tissue and were dried onto the slides but not fixed with aldehydes or organic solvents (Chammas et al. Cancer Res, 1999. 59(6): 1337-46). […] Bound antibody was then detected using the DAKO LSAB kit following the manufacturer's directions (Thermo Fisher Scientific, Waltham, Mass.). […]

B1: SEAM 3: murine anti-N-Pr NmB polysaccharide monoclonal antibody (IgG2b), ATCC Deposit No. HB-12170 (antibody, V domains shown)
VH: EVKLQESGGGLVQPGDSLSLSCAASGFTFTPYYMGWVRQPPGKALEWLGYIRNKANGYTTEYSASVKGRFTISRDNSQSILYLQMNALRAEDSATYYCARYARGTVDSWGQGTTLTVS
VL: DIVMTQSPLTLSVTIGQPASISCKSSQSLLHSNGKTYLNWLLQRPGQSPKLLIYLVSKLESGVPDRFSGSGSGTDFTLKISRVEAEDLGLYYCLQIIHFPHTFGAGTKLELKRA
modifications: mouse
binding to cell surface by microscopy (SK-MEL-28 melanoma cells): fluorescence is uniform over the cell surface
binding to cell surface by microscopy [1]: fluorescence is uniform over the cell surface
number of viable cells compared to irrelevant IgG2b control mAb (SK-MEL 28 cells [2]; 5 μg/ml, 24 h incubation): significantly decreases the number of viable cells
number of apoptotic cells compared to IgG2b control mAb (SK-MEL 28 cells [2]; 5 μg/ml, 48 h): increases the number of apoptotic
number of dead cells compared to IgG2b control mAb (SK-MEL 28 cells [2]; 5 μg/ml, 48 h): increases
number of viable cells compared to IgG2b control mAb (SK-MEL 28 cells [2]; 5 μg/ml, 48 h): decreases the number of viable cells
cytotoxic effect (SK-MEL 28 cells [2]; SK-MEL-28 melanoma, approximately proportional to level of antigen on cell surface): cytotoxic effect of SEAM 3 was observed
cells expressing SEAM 3-reactive antigen on their surface (SK-MEL 28 cells [3]; cells in exponential growth phase, flow cytometry and fluorescence microscopy): approximately 20%
cells expressing both Ki-67 and SEAM 3-reactive antigen on their surface (SK-MEL 28 cells [3]; double labeling): approximately 11%
cells that only express SEAM 3-reactive antigen (SK-MEL 28 cells [3]; double labeling): 13%
cytotoxic effect [4]: cytotoxic effect of SEAM 3 was observed
cytotoxic effect (CHP-134 neuroblastoma): cytotoxic effect of SEAM 3 was observed
binding to internal antigen by flow cytometry (SK-MEL 28 melanoma cells; +Triton X-100): larger amounts of internal SEAM 3-reactive antigen
binding to cell surface by flow cytometry (SK-MEL 28 melanoma cells; −Triton): binds to the surface of all three cell lines
binding to internal antigen by flow cytometry ([5]; +Triton X-100): larger amounts of internal SEAM 3-reactive antigen
binding to cell surface by flow cytometry ([5]; −Triton): greatest amount of binding
binding to internal antigen by flow cytometry ([6]; +Triton X-100): larger amounts of internal SEAM 3-reactive antigen
binding to cell surface by flow cytometry ([6]; −Triton): least
immunostaining of two human melanomas (human melanomas): staining is weaker but nearly all of the melanoma cells are stained
